# From PMC4252038, “H2O2 Inhibits ABA-Signaling Protein Phosphatase HAB1” (PLoS ONE, 2014)
# Target: the molecule itself
# Assay: SEC; size exclusion chromatography of His6-MBP-HAB1(171–511 aa) treated with 0.3 mM H2O2 for 30 min at 30°C; monomer to disulfide-linked dimer
protein,measurement,value
"His6-MBP-HAB1(171–511 aa) wild type (domain or fragment, Arabidopsis thaliana, UniProt Q9CAJ0 171-511, looked up, HAB1 protein phosphatase 2C, Arabidopsis thaliana, phosphatase domain, residues 171-511; In some assays the protein was treated with 0.3 mM or 1 mM H2O2 (30 min, 30°C) beforehand; the treatment is told by the assay; After 0.3 mM H2O2 it is a mixture of monomers and disulfide-linked dimers (C186, C274), after 1 mM higher oligomers; also called HAB1 phosphatase domain; wild type HAB1; source: E. …) NSNHLVKGRSVYELDCIPLWGTVSIQGNRSEMEDAFAVSPHFLKLPIKMLMGDHEGMSPSLTHLTGHFFGVYDGHGGHKVADYCRDRLHFALAEEIERIKDELCKRNTGEGRQVQWDKVFTSCFLTVDGEIEGKIGRAVVGSSDKVLEAVASETVGSTAVVALVCSSHIVVSNCGDSRAVLFRGKEAMPLSVDHKPDREDEYARIENAGGKVIQWQGARVFGVLAMSRSIGDRYLKPYVIPEPEVTFMPRSREDECLILASDGLWDVMNNQEVCEIARRRILMWHKKNGAPPLAERGKGIDPACQAAADYLSMLALQKGSKDNISIIVIDLKAQRKFKTRT",stoichiometry N,2
